Results from US20230365684A1 (Janssen / Centocor, published 2023).
Positions count from the first letter of the chain named.

B1: C33B1476 (antibody, V domains shown)
VH: EVQLVESGGGLVQPGGSLKVSCEASGFTFSVSAIHWVRQASGKGLEWIGRIRSKGNSYATAYNVSVKGRFTISRDDSKNTAYLQMDSLKTEDTAVYYCTRHNDKWNYYGLDVWGQGTTVTVSS
VL: DIVMTQSPLSLPVTPGEPASISCKSSQSLLFSNGYKFLDWYLQRPGQSPQLLIYLGSYRASGVPDRFSGSGSGTDFTLKISRVEAEDVGLYYCMQALQTPPTFGGGTKVEIK
notes: also called sCD33B1476
B2: C33B1517 (antibody, V domains shown)
VH: QVQLQESGPGLVKPSETLSLTCSVSGASIRNYYWSWIRQTAGKGLEWLGHIYSTGNIHYNPSLKSRVTMSVDTSNNQFSLKLRSVTAADTAVYYCARDNGAALFDYWGQGTLVTVSS
VL: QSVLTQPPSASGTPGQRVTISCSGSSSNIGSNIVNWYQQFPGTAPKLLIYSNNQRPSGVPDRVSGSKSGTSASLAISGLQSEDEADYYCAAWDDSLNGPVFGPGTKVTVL
B3: C33B1474 (antibody, V domains shown)
VH: QVQLVESGGGLVQPGGSLRLSCAASGFTFSSFGMSWVRQAPGKGLEWVANIKRDGSEKYYVDSVKGRFTISRDNAKNSLFLQMSSLRAEDTAVYYCVRDYGYFDFWGQGTLVTVSS
VL: DIQMTQSPSSLSASVGDRVTITCQASQAISNYLNWYQQKPGKAPKLLIYDASNLETGVPSRFSGSGSGTDFTFTISSLQPEDFSTYFCQHYDNLPYTFGQGTKLEIK
B4: C33B1785 (llama vHH on mono-Fc backbone) (Fc fusion)
chain: QVQLVESGGGSVQPGGSLRLSCAVFGFSLSDYAIGWFRQAPGKEREKVSCISESDGRTYLSDSVKSRFTISRDNGKNTVYLQMNNLKPDDTGVYYCATVDQAISESSYHCEKGFGSWGQGTQVTVSS
notes: not shown: mono-Fc backbone
B5: C33B1522 (antibody, V domains shown)
VH: QVQLQESGPGLVKPSETLSLTCTVSGGSISSYYWGWIRQPPGKGLEWIGYIYYSGSTNYNPSLKSRVTISVDTSKNQFSLKLSSVTAADTAVYYCARMWEILGFDPWGQGTLVTVS
VL: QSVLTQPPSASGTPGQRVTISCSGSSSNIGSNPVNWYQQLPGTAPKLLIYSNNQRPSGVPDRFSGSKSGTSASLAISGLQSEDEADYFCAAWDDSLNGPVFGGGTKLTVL
B6: C33B931 (antibody, V domains shown)
VH: not shown
VL: SYELTQPPSVSVSPGQTASITCSGDKLGSKFASWYQQKPGQSPVLVIYQDSKRPSGIPERFSGSNSGNTATLTISGTQAMDEADYYCQAWDSSTVVFGGGTKLTVL
B7: C33B919 (antibody, V domains shown)
VH: QVQLVESGGGVVQPGRSLRLSCAASGFTFSSYGMHWVRQAPGKGLEWVAVISYDGSNKYYADSVKGRFTISRDNSKNTLYLQMNSLRAEDTAVYYCAKDFRSFDWLPPDSTSYYGMDVWGQGTTVTVSS
VL: B6 VL with S29D, F31Y, A32V, L45V, Y48H, S51R, S66F
B8: C33B125 (antibody, V domains shown)
VH: B7 VH
VL: B6 VL with S29D, F31Y, A32V, S33C, L45V, Y48H, S51R, S66F
B9: C33B933 (antibody, V domains shown)
VH: B7 VH with A40S, N77S, F103L, Y114D
VL: B6 VL with D25H, S29D, F31Y, L45V, Q49K, S66F
B10: C33B937 (antibody, V domains shown)
VH: B7 VH with A23V, D90G, T111A, Y114H
VL: B6 VL with S29D, F31Y, S51G, S66F, T69K, S92R, S93N
B11: C33B1601 (antibody, V domains shown)
VH: EVQLVESGGGLVRPGGSLKLSCAASGFTFSNYAMSWVRQTPEKRLEWVAGISNSGYSLYYPDTLKGRFTISRDNARNTLYLQMISLRSEDTAMYYCARDGGSYPYAMDYWGHGTSVTVSS
VL: DIVMTQSQKFMSTSVGDRVSVTCKASQNVGTYVAWYQQKPGHSPKALIYSASYRYSGVPDRFTGSGSGTDFTLTISNVQSEDLADYFCQQYKSYPLTFGAGTKLELK
B12: C33B1607 (antibody, V domains shown)
VH: EVQLQQSGPELVKPGSSVKISCKASGYTFTDYNINWVKQSHGKNLEWIGTINPNNGVTFYNQRFKGQATLTVDKSSSTAYMELRSLTSEDSAVYYCSRDGYDTYYAMDYWGQGTTLTVSS
VL: DIVMTQSHKFMSTSVGDRVSITCKASQDVRTAEAWYQQKPGQSPKLLIYSASNRYTGVPDRFTGSGSGTDFTFTISSVQAEDLAVYYCQQYYTTPRTFGGGTKLEIK
B13: C33B1495 (antibody, V domains shown)
VH: EVQLVESGGGLVQPGGSLRLSCTASGFTFSSYWMSWVRQAPGKGLDWVANIKRDGSEKHYVDSVKGRFTISRDNAKNSLYLQMNSLRAEDSAVYYCTRDYGYFDYWGQGTLVTVSS
VL: DIQLTQSPSFLSASVGDRVTITCRASQGISSYLAWYQQKPGKAPKVLIYAASTLQSGVPSRFSGSGSGTEFTLTISSLQPEDFATYFCQQLNSYPVTFGGGTKVEIK
notes: also called sCD33B1495
B14: C33B1478 (antibody, V domains shown)
VH: B1 VH with N63D
VL: B1 VL
modifications: In the FIG. 3 assay the antibody carried Alexa Fluor 647 (p-1610); the site is not given and the letters do not carry it.
notes: also called sCD33B1478
B15: C33B1484 (antibody, V domains shown)
VH: B1 VH with S32F, N63D
VL: B1 VL with G105Q
notes: also called sCD33B1484
B16: C33B1788 (llama vHH on mono-Fc backbone) (Fc fusion)
chain: B4 chain with S11L
notes: not shown: mono-Fc backbone
B17: C33B1789 (llama vHH on mono-Fc backbone) (Fc fusion)
chain: B4 chain with S11L, P14A
notes: not shown: mono-Fc backbone
B18: C33B1783 (llama vHH on mono-Fc backbone) (Fc fusion)
chain: EVQLVESGGGLVQAGGSLRLSCAASGFTFDDYAVGWFRQVPGKEREGVSCISSSDGATYYADSVKGRFTISSDNAKNTVYLQMNSLKPEDTAVYYCTAIIVRGSGWERAAAACRYEYSYWGQGTQVTVSS
notes: vHH is placed first; not shown: mono-Fc backbone
B19: C33B1782 (llama vHH on mono-Fc backbone) (Fc fusion)
chain: B18 chain with V40A, V48I, S72T, V79A, Y80F, I99V, S104T, S118A
notes: not shown: mono-Fc backbone
B20: C33B1786 (llama vHH on mono-Fc backbone) (Fc fusion)
chain: EVQVVESGGGVVQSGGSLTLSCEASESILSFSTMDWFRQAPGKEREGVSCIRPRYSTTTHADSIKGRFKMYSDNAKNTIYLHMNSLQPEDTAVYYCHMYHYSSQYWGQGTQVTVSS
notes: not shown: mono-Fc backbone
B21: C33B1787 (llama vHH on mono-Fc backbone) (Fc fusion)
chain: EVQLVESGGGLVQAGGSLRLSCAASGFTFDDYAIGWFRQAPGKEREGVSCISSSDGSTYYVDSVKGRFTISSDNAKNTVYLQMNSLKPEDTAVYYCTALIIMYGSGSERAAAACRYKYEYWGQGTQVTVSS
notes: not shown: mono-Fc backbone
B22: C33B1781 (llama vHH on mono-Fc backbone) (Fc fusion)
chain: EVQVVESGGGLVQGGGSLRLSCAASGSIFSINAMGWYHQAPGKQRELVARITGGGATDYVDSVKGRFTISLDSAKSTVYLQMNSLKPEDTAVYHCYADLVTRVGSDLLYDDYWGQGTQVTVSS
notes: not shown: mono-Fc backbone
B23: C33B1784 (llama vHH on mono-Fc backbone) (Fc fusion)
chain: EVQLVESGGGLVQAGGSLRLSCAASGRTFSTYVMGWFRQAPGQERELVAAIVSGRNPTYADSVKSRFTISRDNAKNTIYLHMNSLQPEDTAVYYCHMYHYSSQYWGQGTQVTVSS
notes: not shown: mono-Fc backbone

target: T1, human CD33 on cells (MOLM-13, Kasumi-1, OCI-AML-3, Kasumi-3) (human, UniProt P20138 18-364); test: flow cytometry on OCI-AML-3 cells, 4 °C, serial dilutions of the antibody
T1 construct: whole, on cells; also called CD33 expressing cells; CD33+ cell lines
T1 sequence (P20138 18-364): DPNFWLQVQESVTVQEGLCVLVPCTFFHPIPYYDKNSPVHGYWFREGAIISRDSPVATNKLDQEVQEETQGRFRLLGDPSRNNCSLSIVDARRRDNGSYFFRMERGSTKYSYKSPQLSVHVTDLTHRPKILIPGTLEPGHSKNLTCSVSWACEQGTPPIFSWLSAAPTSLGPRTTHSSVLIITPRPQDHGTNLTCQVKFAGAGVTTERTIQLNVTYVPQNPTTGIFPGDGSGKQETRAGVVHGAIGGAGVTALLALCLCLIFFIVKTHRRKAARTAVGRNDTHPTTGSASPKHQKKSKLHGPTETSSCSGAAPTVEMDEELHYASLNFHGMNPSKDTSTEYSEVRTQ
Procedure: (§1) Cells were harvested, washed once with PBS and then stained with the fixable viability dye at room temperature for 30 min. Following incubation, cells were washed twice with FACS buffer (PBS+2% FBS). Cells were then used for binding assay with test antibodies. 100,000 cells were stained with the test antibodies in a 100 ul staining volume. Antibodies for staining were diluted in FACS buffer and incubated with the cells for 40 mins on ice, followed by washing 2X with FACS buffer. Test antibodies were then detected using the PE conjugated Goat F(ab′)2 Anti-Human IgG-Fc (ab98596; Abcam) for 40 minutes on ice. Following washing, data was acquired on the Novocyte flow cytometer (ACEA). Cells were gated on FSC/SSC, followed by live cell gating and doublet discrimination. Data was analyzed using Flow Jo (BD).
(§2) Median fluorescence intensity values were used to plot a 4-parameter non-linear regression analysis curve after subtracting the MFI of the secondary only sample.
(§3) The binding EC₅₀ values of CD33 antibodies to high (MOLM-13), medium (Kasumi-1) and low (OCI-AML-3) cell lines were assayed. Binding was carried out at 4° C. with serial dilutions of the antibody.

| Binder | EC50 [nM] |
| --- | --- |
| B1 | 0.8 |
| B2 | 1.4 |
| B3 | 1.26 |

target: T2, human CD33 (full length ECD), recombinant (human, UniProt P20138 18-259); test: SPR, Biacore 8K, 25 °C, vHH-mono-Fc captured by anti-Fc antibody, CD33-hu-FL injected as analyte, 1:1 binding model [contd]
T2 construct: extracellular domain; Tag or HSA fusion partner unknown; also called hu CD33 (FL ECD); hCD33-FL ECD
T2 sequence (P20138 18-259): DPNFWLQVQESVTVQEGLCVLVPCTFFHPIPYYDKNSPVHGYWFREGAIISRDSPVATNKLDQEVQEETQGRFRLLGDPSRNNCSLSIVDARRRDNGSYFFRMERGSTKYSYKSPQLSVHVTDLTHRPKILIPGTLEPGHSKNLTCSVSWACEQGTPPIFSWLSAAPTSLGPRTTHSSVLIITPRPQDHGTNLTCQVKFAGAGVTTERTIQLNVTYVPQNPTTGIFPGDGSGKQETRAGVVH
Procedure: (§4) The binding affinity of anti-CD33 antibodies and Llama vHHs to the recombinant human CD33 (FL ECD or IgC2 domain) was determined by surface plasmon resonance (SPR) using Biacore 8K instrument. […] The association and dissociation were monitored for 2 and 30 minutes, respectively, using a flow rate of 50 μL/min. Raw binding data was referenced by subtracting the analyte binding signals from blanks and analyzed using a 1:1 Langmuir binding model using the Biacore software to obtain the kinetics which were used to calculate the binding affinity.
(§5) The anti-CD33 Llama vHHs on a mono-Fc backbone were captured using an anti-human Fc antibody and the antigens were injected in solution.

| Binder | koff [s⁻¹] | kon [M⁻¹ s⁻¹] |
| --- | --- | --- |
| B4 | 0.000928 | 1.4e+06 |

target: T2, human CD33 (full length ECD), …; test: SPR (Biacore 8K), antibody captured by anti-human Fc, antigen in solution
Procedure: (§6) Affinities (KD) for the interaction of anti-CD33 antibodies human CD33 (full length ECD and IgC2 domain) were obtained by SPR. The anti-CD33 antibodies were captured using an anti-human Fc antibody and the antigens were injected in solution.
as §4

| Binder | Kd [nM] |
| --- | --- |
| B2 | 4.44 |
| B5 | > 10 |
| B3 | 2.47 |
| B6 | 0.4 |
| B7 | 0.5 |
| B8 | 0.1 |
| B9 | 0.5 |
| B10 | 0.3 |
| B11 | 1.1 |
| B12 | 1.49 |

target: T3, human CD33 IgC2 domain, recombinant (human, UniProt P20138 136-259); test: as above
T3 construct: domain: IgC2; also called hu CD33 (IgC2); hCD33-IgC2
T3 sequence (P20138 136-259 limits assumed): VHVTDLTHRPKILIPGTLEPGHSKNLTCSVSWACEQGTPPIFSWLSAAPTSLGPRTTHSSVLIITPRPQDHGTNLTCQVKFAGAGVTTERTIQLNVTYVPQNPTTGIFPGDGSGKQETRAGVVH
Procedure: as §6, §4

| Binder | binding result | Kd [nM] |
| --- | --- | --- |
| B2 | no binding (tested: 40 nM-1.6 nM CD33 antigen) | – |
| B5 | no binding (tested: 40 nM-1.6 nM CD33 antigen) | – |
| B3 | – | 3.99 |
| B7 | no binding (tested: 40 nM-1.6 nM CD33 antigen) | – |
| B8 | – | > 10 |
| B10 | – | 56 |
| B11 | – | 6.8 |
| B12 | no binding (tested: 40 nM-1.6 nM CD33 antigen) | – |

target: T3, human CD33 IgC2 domain, recombinant; test: SPR, Biacore 8K, 25 °C, vHH-mono-Fc captured by anti-Fc antibody, CD33-hu-domain injected as analyte, 1:1 binding model [contd]
Procedure: as §4, §5

| Binder | koff [s⁻¹] | kon [M⁻¹ s⁻¹] |
| --- | --- | --- |
| B4 | 0.0034 | 1.03e+06 |

target: T1, human CD33 on cells (MOLM-13, Kasumi-1, …); test: flow cytometry on MOLM-13 cells, 4 °C, detection with PE goat F(ab')2 anti-human IgG-Fc

| Binder | binding result |
| --- | --- |
| B13 | binds |
| B14 | binds |
| B15 | binds |

target: T2, human CD33 (full length ECD), …; test: SPR (Biacore 8K), vHH-mono-Fc captured by anti-human Fc, antigen in solution
Procedure: as §4, §5

| Binder | Kd [nM] | binding result |
| --- | --- | --- |
| B16 | 0.707 | – |
| B4 | 0.661 | – |
| B17 | 0.67 | – |
| B18 | 0.0859 | – |
| B19 | 0.206 | – |
| B20 | 0.357 | – |
| B21 | 0.792 | – |
| B22 | 2.21 | – |
| B23 | – | binds |

target: T3, human CD33 IgC2 domain, recombinant; test: as above
Procedure: as §4, §5

| Binder | Kd [nM] |
| --- | --- |
| B16 | 4.34 |
| B4 | 3.31 |
| B17 | 3.03 |
| B22 | 0.0559 |

target: T1, human CD33 on cells (MOLM-13, Kasumi-1, …); test: flow cytometry on MOLM-13 cells, 4 °C, serial dilutions of the antibody
Procedure: as §1, §2, §3

| Binder | EC50 [nM] |
| --- | --- |
| B2 | 10.6 |
| B5 | 32.7 |
| B3 | 78.4 |

target: T1, human CD33 on cells (MOLM-13, Kasumi-1, …); test: flow cytometry on Kasumi-1 cells, 4 °C, serial dilutions of the antibody
Procedure: as §1, §2, §3

| Binder | EC50 [nM] |
| --- | --- |
| B5 | 73.4 |
